According to patent publication US20210187069A1:

Molecular target: wildtype SARM1 (endogenous, in wildtype mouse dorsal root ganglion neurons) (mouse) (UniProt Q6PDS3)
Test: cell-based or functional assay

wildtype SARM1 (endogenous, in wildtype mouse dorsal root ganglion neurons) (mouse), sequence (Q6PDS3 28-724 limits assumed): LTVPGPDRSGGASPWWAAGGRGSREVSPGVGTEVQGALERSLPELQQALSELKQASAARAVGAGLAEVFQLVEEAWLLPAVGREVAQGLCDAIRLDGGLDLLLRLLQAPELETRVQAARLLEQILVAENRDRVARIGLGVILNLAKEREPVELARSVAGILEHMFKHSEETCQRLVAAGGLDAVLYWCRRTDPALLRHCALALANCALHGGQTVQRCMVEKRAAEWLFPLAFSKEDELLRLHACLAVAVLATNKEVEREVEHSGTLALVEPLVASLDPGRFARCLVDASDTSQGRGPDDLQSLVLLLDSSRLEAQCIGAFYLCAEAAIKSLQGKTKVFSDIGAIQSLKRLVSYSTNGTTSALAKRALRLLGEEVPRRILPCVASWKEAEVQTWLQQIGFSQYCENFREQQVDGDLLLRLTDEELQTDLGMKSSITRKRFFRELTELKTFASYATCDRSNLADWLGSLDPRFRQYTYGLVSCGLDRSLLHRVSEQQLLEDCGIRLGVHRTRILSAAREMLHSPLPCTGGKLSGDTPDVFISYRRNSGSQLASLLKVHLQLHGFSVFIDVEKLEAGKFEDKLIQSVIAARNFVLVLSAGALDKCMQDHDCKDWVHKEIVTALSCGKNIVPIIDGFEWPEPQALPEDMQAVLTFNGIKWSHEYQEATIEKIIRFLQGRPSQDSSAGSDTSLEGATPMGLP

axon degeneration after axotomy: 24 h
Substance: SARM1 E569K (from UniProt Q6SZW1 28-724)
